Measurements from the nanobody polyreactivity screen of Harvey et al. (2022).

Assay: yeast display, Sf9 membrane polyspecificity reagent, FACS + sequencing; frameworks hold sequencing errors
Summary of the method: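 Nanobodies came from a synthetic yeast display library in Saccharomyces cerevisiae BJ5465, induced with galactose for 36–48 hours and stained for 1 hour at 4 °C with 10% biotinylated, detergent-solubilized Sf9 membrane reagent. Cells were enriched on streptavidin microbeads and then FACS-sorted, with low and high (top ~1%) gates set on anti-HA fluorescence for expression and streptavidin fluorescence for reagent binding. Each polyreactivity label reflects the gate a clone came from. Genes were amplified by colony PCR, sequenced by MiSeq 2 × 250 and filtered by CDR length.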

Sequence | polyreactivity (PSR sort gate)
QVQLVESGGGLVQAGGSLRLSCAASGRTFVQYVMGRYRQAPGKERELVAAITSSGGSTYADSVKGRFTISRDNAKNTVYLQMNSLKPEDTAVYYSAADYLDGVGDVEHDYWGQGTQVTVSS | low polyreactivity
QVQLVESGGGLVQAGGSLRLSCAASGRTFVRNAMGWYRQAPGKERELVAAISVDGSSTYYADSVKGRFTISRDNAKNTVYLQMNSLKPEDTAVYYCNADWDYRDFYDITYDYWGQGTQVTVSS | low polyreactivity
QVQLVESGGGLVQAGGSLRLSCAASGRTFVRNTMGWYRQAPGKERELVAAISGGGSTYYADSVKGRFTISRDNAKNTVYLQMNSLKPEDTAVYYCAATTRRQGGKRFDYWGQGTQVTVSS | high polyreactivity
QVQLVESGGGLVQAGGSLRLSCAASGRTFVRYAMGWSRQAPGKERELVAAITKSGGSTSYADSVKGRFTISRDNAKNTVYLQMNSLKPEDTAVYYCATRGYYQRSSPMDYWGQGTQVTVSS | high polyreactivity
QVQLVESGGGLVQAGGSLRLSCAASGRTFVRYAMGWYRQAPGKERELVAAISLRGGRTYYADSVKGRFTISRDYANNTVYLQMNSRNPEDTAVYYCAARSYPTGASFDYWGQGTQVTVSS | high polyreactivity
QVQLVESGGGLVQAGGSLRLSCAASGRTFVRYAMGWYRQAPGKERELVAAISWSGGSTYYADSVKGRFTISRDNAKNTVYLQMNSLKPADTAVYYCAAYYRGRNFDYCGQGTQVTVSS | high polyreactivity
QVQLVESGGGLVQAGGSLRLSCAASGRTFVSNAMGWYRQAPGKERELVATITVSSDSTYYADSVKGRFTISRDNAKNTVYLQMNSLKPEDTAVYYCAARNPTWSFQFDYWGQGTQVTVSS | low polyreactivity
QVQLVESGGGLVQAGGSLRLSCAASGRTFVSYAMGWSRQAPGKERELVATITGSTGGTYYADSVKGRFTISRDNAKNTVYLQMNSLKPEDTAVYYCNKDYYYNPGNVASGYDYWGQGTQVTVSS | low polyreactivity
QVQLVESGGGLVQAGGSLRLSCAASGRTFVSYAMGWYRQAPGKERELVAGITWRGGSTYYADSVKGRFTISRDNAKNTVYLQMNSLTPEDTAVYYCAKRSVLYGNRIFDYWGQGTQVTVSS | high polyreactivity
QVQLVESGGGLVQAGGSLRLSCAASGRTFVSYDMGWYRQAPGKERELVAAITYSGGSSTYYADSVKGRFTISRDNAKNTVYLQMNSLKPEDTAVYYCATDYSLSFELDYWGQGTQVTVSS | low polyreactivity
QVQLVESGGGLVQAGGSLRLSCAASGRTFVTYAMGWYRQAPGKERELVAAISKRGSRTYYADSVKGRFTISRDNAKNTVYLQMNSLKPEDTAVYYCNAYPYRTSYDYWGQGTQVTVSS | high polyreactivity
QVQLVESGGGLVQAGGSLRLSCAASGRTFVVNAMGWSRQAPGKERELVAAITRRGGITYYADSVKGRFTISRDNAKNTVYLQMNSLKPEDTAVYYCAADRSYYPDTRTTYGYNYWGQGTQVTVSS | low polyreactivity
QVQLVESGGGLVQAGGSLRLSCAASGRTFVVNAMGWYRQAPGKERELVARITNSGLTNYADSVKGRFTISRDNAKNTVYLQMNSLKPEDTAVYYCNAAASYYVMLSWTRVYYWGQGTQVTVSS | high polyreactivity
QVQLVESGGGLVQAGGSLRLSCAASGRTFVVYAMGWYRQAPGKERELVAVIRVIGGSTNYADSVKRRFTISRDNAKNTVYLQMYSLKPEDTAVYYCAAAWSHSRWDTHDYWGQGTQVNVSS | low polyreactivity
QVQLVESGGGLVQAGGSLRLSCAASGRTFVVYAMGWYRQAPGKERELVAVISFTGDSTFYADSVKGRFTISRDNGKNTVYLQMNSLKPEDTAVYYCAADFRRVFSKYSYYLYFDFDYWGQGTLVTVSS | low polyreactivity
QVQLVESGGGLVQAGGSLRLSCAASGRTFVWNAMGWYRQAPGKERELVAAIDWSGGSTYYADSVKGRFTISRDNAKNTVYLQMNSLKPEDSAVYYCAKEYWYRALWYNYWGQGTQVTVSS | high polyreactivity
QVQLVESGGGLVQAGGSLRLSCAASGRTFVWYAMGWYRQAPGKERELVAAITLSGGSTYYADSVKGRFTISRDNAKNTVYLQMNSLKPEDTAVYYCAADGTYRPEDYDYWGQGTQVTVSS | low polyreactivity
QVQLVESGGGLVQAGGSLRLSCAASGRTFVYNAMGWSRQAPGKERELVAAITSGGSTYYADSVKGRFTISRDNAKNTVYLQMNSLKPEDTAVYYCAAYKRGYYWGQGTQVTVSS | high polyreactivity
QVQLVESGGGLVQAGGSLRLSCAASGRTFVYNAMGWYRQAAGKEWELVAAISSDGASTYYADSVKGRFTISRDNAKNTAYLQMNSLKPEDTAVYYCAADFSYYSYEHYYWGQGTQVTVSS | low polyreactivity
QVQLVESGGGLVQAGGSLRLSCAASGRTFVYNAMGWYRQAPGKERELVAAIDGGGDRTYYADSVKGRFTISRDNAKNTVYLQMNSLKPEDTAVYYCNARWQEPLKYDYWGQGTQVTVSS | low polyreactivity
QVQLVESGGGLVQAGGSLRLSCAASGRTFVYNAMGWYRQAPGKEREMVSGITNGGSTNYADSVKGRFTISRDNAKNTVYLQMNSLKPEDTAVYYCAADSRVYPYYFGDFGYWGQGTQVTVSS | low polyreactivity
QVQLVESGGGLVQAGGSLRLSCAASGRTFVYNAMGWYSQAPGKEREMVAAISFGGGNTYYADSVKGRFTISRDNAKNTVYLQMNSLIPEDTAVYYCAKAYIGYWGASWYYAYDYWGQGTQVTVSS | low polyreactivity

Sequence | polyreactivity (PSR sort gate)
QVQLVESGGGLVQAGGSLRLSCAASGRTFVYYAKGWYIQAPGKERELVATISSSDSTNYAYSVKGRFTISRDNAKNTVYLQMNSLKPEDTAVYYCAGGPKGGGYYDPFDYWGQGTQVNVSS | low polyreactivity
QVQLVESGGGLVQAGGSLRLSCAASGRTFVYYAMGWYRQAPGKEREFVAAISRSGGRTSYADSVKGRFTISRDNAKNTVYLQMNSLKPEDTAVYYCAAEKRTQPSSREYYWGQGTQVTVSS | high polyreactivity
QVQLVESGGGLVQAGGSLRLSCAASGRTFVYYAMGWYRQAPGKERELVAAITSGGSTYYADSVKGRFTISRDNAKNTVYLQMNSLKPEDTAVYYCNKARVRGARFDYWGQGTQVTVSS | high polyreactivity
QVQLVESGGGLVQAGGSLRLSCAASGRTFVYYAMGWYRQAPGKERELVATISRRGGGTYYADSVKGRFTISRDNEKNTVYLQMNSLKPEDTAVYYCAAAFSYYPRYDYWGQGTQVTVSS | high polyreactivity
QVQLVESGGGLVQAGGSLRLSCAASGRTFWANTMGWYRQAPGKERELVAAISKRGGSTYYADSVKGRFTISRDNAKNTVYLQMISLKPEDTAVFYCNADKSGWYDYWGQGTQVTVSS | high polyreactivity
QVQLVESGGGLVQAGGSLRLSCAASGRTFWDYGMGWYRQAPGKDRELDATISGNGGDTYYADSVKGRFTISRDTAKNTVYLQMNSLKPEDTAVYYCAADYRFYRTDRHYDYWGQGTQVTVSS | low polyreactivity
QVQLVESGGGLVQAGGSLRLSCAASGRTFWFNDMGWYRQAPGKERELVAAISDTDGSTYYADSVKGLFTISRDNAKNTVYLQMNSLKPEDTAVYYCAAEAYYGYLYAYDYWGQGTQVTVSS | low polyreactivity
QVQLVESGGGLVQAGGSLRLSCAASGRTFWFYDMGWYRQAPGKEREFVASITSSGGSTYYADSVKGRFTISRDIAKNTVYLQMNSLNPEDTAVYYCAASFYWTTRYSREYDYWGQGTQVTVSS | high polyreactivity
QVQLVESGGGLVQAGGSLRLSCAASGRTFWFYTMGWYRKAPGKEREFVAAISSGGSTNYADSVKGRFTISRDNAKYSVYLQMNSLKPEDTALYYCNARFQVGQSEYAVWYYPKYDYWGQGTQVTVSS | low polyreactivity
QVQLVESGGGLVQAGGSLRLSCAASGRTFWGYAMGWYRQAPGKERELVAAISSGGDTTYADSVKGRFTISRDNAKNTVYLQMNSLKPEDTAVYYCAADRWIPVYILGADGYDYWGQGTQVTVSS | low polyreactivity
QVQLVESGGGLVQAGGSLRLSCAASGRTFWHNAMGWYRQEPGKERELVAAITIRGGRTYYADSVKGRFTISRDNAKNTVYLQMNSLKPEDTAVYYCAAPPFVKMDYWGQGTQVTVSS | high polyreactivity
QVQLVESGGGLVQAGGSLRLSCAASGRTFWIYAMGWYRQAPGKERELVAAISRGGSTYADSVKGRFTISRDNAKNTVYLQMNSLKPEDTAVYYCAASTPQYQYYYWGQGTQVTVSS | high polyreactivity
QVQLVESGGGLVQAGGSLRLSCAASGRTFWIYTMGWYRQAPGKEREFVAAISIRGGSTYYADSVKGRFTISRDNAKNTVYLQMNSLKPEDTAVYYCAADGGYSLWADDDYWGQGTQVTVSS | low polyreactivity
QVQLVESGGGLVQAGGSLRLSCAASGRTFWNYAMGWYRQAPGKERELVAVIRFSDGSTYYADSVKGRFTISRDNAKNTVYLQMNSLKPEDTAVYYCAADDLLDYDYWGQGTQVTVSS | low polyreactivity
QVQLVESGGGLVQAGGSLRLSCAASGRTFWNYAMGWYRQATGKERELVAVIRFSDGSTYYADSVKGRFTISRDNAKNTVYLQMNSLKPEDTAVYYCAAKGPRRWGSGFDYWGQGTQVTVSS | low polyreactivity
QVQLVESGGGLVQAGGSLRLSCAASGRTFWPNAMGWYRQAPGKERELVAGIDWSGGSTYYADSVKGRFTISRDNAKNTVYLQMNSLKPEDTAVYYCNKVYYSYIPSTYGYWGQGTQVTVSS | high polyreactivity
QVQLVESGGGLVQAGGSLRLSCAASGRTFWRNAMGWYRQAPGKERELVADITTSGARTYYADSVKGRFTISRDNAKNTVYLQMNSLKPEDTAVYYCAKGPYTPWPKITGYNYWGQGTQVTVSS | high polyreactivity
QVQLVESGGGLVQAGGSLRLSCAASGRTFWRYTMGWYRQAPGKERELVAAISTNAGTTYYADSVKGRFTISRDNAKNTVYLQMNSLKPEDTAVYYCAARHPGNGYADPTNYYWGQGTQVTVSS | high polyreactivity
QVQLVESGGGLVQAGGSLRLSCAASGRTFWSYAMGWYRQAPGKEREFVAAISRRGGITYYADSVKGRFTISRDNAKNTVYLQMNSLKPEDTAVYYCAALPASVRRPGWHDYWGQGTQVTVSS | high polyreactivity
QVQLVESGGGLVQAGGSLRLSCAASGRTFWTNTMGWYRQAPGNEREFVAAITFGDGSTSYADSVKGRFTISRDNAKNTVYLQMNCLIAEVTAVYYCAKRWRRRFVDVWSLYDYWGQGTQVTVSS | low polyreactivity
QVQLVESGGGLVQAGGSLRLSCAASGRTFWWNAMGWYRQAPGKERELVAVISYSGGSTYYADSVKGRFTISRDNAKNTVYLQMNSLKPEDTAVYYCAAEAYTYWDTIYDYLGQGTQVTVSS | high polyreactivity
